Data on one protein can be found in PMC5567573, “Identification, heterologous expression and characterization of a dye-decolorizing peroxidase of Pleurotus sapidus” (AMB Express, 2017).

What all share (experiment): purified protein
Substrate in series [1]: COc1ccccc1O
To be noted: H2O2 62.5 µM, pH 4.5, 50 mM sodium acetate, 30 °C, 4.5 nM enzyme.

Substrate in series [2]: CCn1c(=NN=c2sc3cc(S(=O)(=O)O)ccc3n2CC)sc2cc(S(=O)(=O)O)ccc21
It is filed as biochemical, Pleurotus sapidus. Particulars: H2O2 125 µM, pH 3.8, 100 mM sodium acetate, 30 °C, 0.27 nM enzyme.

Substrate in series [3]: COc1cccc(OC)c1O
The format is biochemical, Pleurotus sapidus. To be noted: H2O2 62.5 µM, pH 4.5, 50 mM sodium acetate, 30 °C, 1.8 nM enzyme.

B1: rPsaDyP (recombinant DyP-type peroxidase of Pleurotus sapidus) (Pleurotus sapidus) (protein)
chain: ATNGTFLPLEEIQGDIMIGMRKPKEIFFFYSLQNPRKFKSVLAKLIYPHITTTAQMVCTTCAQPSAMLNVAWTSQGLRKLGVLDNLGDPYFAMGQLSDAAALGDTDPSTTWAPGLYANKTDGAFLIAAKDWEPIDTLLNQMKAWLGDAIVETHSNRGAVRPGDAAGKEHFGWLDGFIQPAVAGFATSTYPGQQLLLPGTLLTKEIGDPRRAARPAWTKWGSFMAYRQLQELVPEFDDYLMQEAALIQDSSRSVRERADLLGARMFGRWKSGTPLDLAPEKDDPSIGPNLMLNNNFDFNHPAPFNINTNQSYCPFSAHIRKIRPRADQGNQNLKNQMIRASIPYGEELSDDEINNKKTGTERGVAFVTYQSDLGSGFHFQQAEWANNVNIPTGKSDPTPGFDPIVGQNSGKPLVVSGIDYTDLNHDLTFMSFVVSKGGDYFFSPSMSAILHKIAA
For orientation: Km means the substrate concentration at which the rate is half of its maximum. By Vmax is commonly meant the rate approached at saturating substrate. The kcat is the number of substrate molecules converted per active site and unit of time at saturation. Broadly, the kcat/Km is the second-order rate constant that governs catalysis at low substrate concentration. Turning to B1, in “purified protein [1]”, the Km is recorded as 713 µM, the Vmax was 21 µM/min, the kcat turned out to be 74 s⁻¹ and the kcat/Km was 100000 M⁻¹ s⁻¹. In the series “purified protein [2]”, the Km is given as 99 µM, the Vmax was 6 µM/min, the kcat worked out at 375 s⁻¹ and the kcat/Km stood at 3.8e+06 M⁻¹ s⁻¹. For the same protein, in the series “purified protein [3]”, the Km is 1227 µM, the Vmax was 6.6 µM/min, the kcat stood at 60 s⁻¹ and the kcat/Km amounted to 49000 M⁻¹ s⁻¹.
